Substitutions are numbered along the chain they refer to.
Columns and labels:
[1] = target: T1, human CD3 (human, UniProt P07766 22-207); test: flow cytometry on Jurkat cells (CD3-positive, CD20-negative); PE-conjugated goat anti-human IgG F(ab')2; median FI (PE)
T1 construct: CD3 as part of the TCR complex on Jurkat cells or human T cells; also called human CD3ε (epsilon)
Description: In addition to the non-activating mutations, L234F, L235E, D265A, on both arms, the bispecific antibody contained an F405L mutation on one arm and a K409R mutation on the other arm.
Cells (1×10⁵ cells/well) were incubated in polystyrene 96-well round-bottom plates (Greiner bio-one, cat. no. 650101) with serial dilutions of antibodies (range 0.041 to 30 μg/mL in 3-fold dilution steps [A-E] and 0.00061 to 10 μg/mL in 4-fold dilution steps [F-I]) in 100 μL PBS/0.1% BSA/0.02% azide (from here designated as staining buffer) at 4° C. for 30 min.
After washing twice in staining buffer, cells were incubated in 50 μL secondary antibody at 4° C. for 30 min. As a secondary antibody, R-Phycoerythrin (PE)-conjugated goat-anti-human IgG F(ab′)₂ (cat. no. 109-116-098, Jackson ImmunoResearch Laboratories, Inc., West Grove, Pa.) diluted 1:200 in staining buffer, was used for all experiments. Next, cells were washed twice in staining buffer, re-suspended in 30 μL staining buffer and analyzed on an iQue screener (Intellicyt Corporation, USA) (for FIG. 1A-E) or re-suspended in 100 μL staining buffer and analyzed on a FACSCANTOII (BD Biosciences) (FIG. 1F-I). Binding curves were analyzed using non-linear regression (sigmoidal dose-response with variable slope) using GraphPad Prism V75.04 software (GraphPad Software, San Diego, Calif., USA).

[2] = target: T2, human CD20 (human, UniProt P11836 1-297); test: flow cytometry on HEK293F cells transiently expressing wild type CD20; PE-conjugated goat anti-human IgG F(ab')2; MFI
T2 construct: whole, on cells; On Daudi and other human B cell lines, on human B cells in blood, or transiently expressed in HEK293F cells (construct pEE12.4CD20HS-GA); also called wild type CD20; WT CD20
T2 sequence (looked up): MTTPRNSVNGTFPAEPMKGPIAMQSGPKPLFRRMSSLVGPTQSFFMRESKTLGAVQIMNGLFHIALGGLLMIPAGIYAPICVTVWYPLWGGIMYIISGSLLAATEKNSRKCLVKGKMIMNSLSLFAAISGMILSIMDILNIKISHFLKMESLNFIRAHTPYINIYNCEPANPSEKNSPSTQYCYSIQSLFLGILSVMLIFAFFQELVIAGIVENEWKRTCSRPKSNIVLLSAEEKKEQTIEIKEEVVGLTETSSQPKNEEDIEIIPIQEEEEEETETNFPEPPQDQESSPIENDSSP
Description: (§1) PCR was performed on a Tgradient Thermocycler 96 (Biometra) using a 35 cycle program of: +95° C. for 15 min, followed by 35 cycles of: +94° C. for 30 sec, anneal: 55° C. for 30 sec and extension: +72° C. for 2 min, followed by a final extension step at 72° C. for 10 min and subsequent storage at 4° C. The completed reactions were analyzed by agarose gel electrophoresis. See Table 11 for details of primer pairs used for colony PCR. DNA sequencing: Plasmid DNA samples were send to AGOWA (Berlin, Germany) for sequence analysis. Sequences were analyzed using the VectorNTI software package (Informax, Frederick, Md., USA).
(§2) Mutagenesis: The mutagenesis was performed, using the QuikChange® XL Site-Directed Mutagenesis kit (Cat 200517-5, Lot 1120630, Stratagene Europe) according to the manufacturer's instructions. Mutagenesis reactions were concentrated using ethanol precipitation and transformed into either oneshot DH5α-TIR competent E. coli cells or electroporated into ElectroTen-Blue® Electroporation-Competent Cells. Colonies were checked by colony PCR and restriction digestion prior to transfection. […] Anti-CD20 Antibody binding: HEK293F cells were taken up in staining buffer (PBS supplemented with 0.1% BSA and 0.02% NaN₃) and added to round bottom plates (1-3×10⁵/well in 100 μL). […] After washing twice in staining buffer, cells were incubated in 50 μL secondary antibody at 4° C. for 30 min. As a secondary antibody, R-Phycoerythrin (PE)-conjugated goat-anti-human IgG F(ab′)₂ was used, as described supra. Next, cells were washed once in staining buffer, re-suspended in 150 μL staining buffer and analyzed on a flow cytometer (FACSCanto-720, Becton Dickinson, San Diego, Calif., USA) and 10,000 events per sample were acquired at high flow rate. Binding curves were analyzed using non-linear regression (sigmoidal dose-response with variable slope) using GraphPad Prism V75.04 software (GraphPad Software, San Diego, Calif., USA).

[3] = target: T3, CD20-AxP (human, UniProt P11836 1-297); test: flow cytometry on HEK293F cells transiently expressing CD20-AxP (A170S/P172S); PE-conjugated goat anti-human IgG F(ab')2; MFI
T3 construct: whole, on cells; Transiently expressed in HEK293F cells; also called AxP mutant; CD20 mutant (CD20-AxP)
T3 sequence (looked up): T2 sequence (looked up) with A170S, P172S
Description: as §1, §2

[4] = target: T3, CD20-AxP; test: flow cytometry, HEK293F transfectants, MFI mutant/MFI wt at 10 µg/mL
Description: (§3) As a secondary antibody, R-Phycoerythrin (PE)-conjugated goat-anti-human IgG F(ab′)₂ was used, as described supra. Next, cells were washed once in staining buffer, re-suspended in 150 μL staining buffer and analyzed on a flow cytometer (FACSCanto-720, Becton Dickinson, San Diego, Calif., USA) and 10,000 events per sample were acquired at high flow rate. Binding curves were analyzed using non-linear regression (sigmoidal dose-response with variable slope) using GraphPad Prism V75.04 software (GraphPad Software, San Diego, Calif., USA).
(§4) Numbers indicate the percentage of binding to the CD20 mutants, relative to binding to wild type CD20, at 10 μg/mL. The percentage of binding was calculated by the following formula: (MFI binding to CD20 mutant)/(MFI binding CD20 wt) × 100%

[5] = target: T4, CD20 KDD mutant (human, UniProt P11836 1-297); test: as above
T4 construct: whole, on cells; Transiently expressed in HEK293F cells; also called T159K/N163D/N166D
T4 sequence (looked up): T2 sequence (looked up) with T159K, N163D, N166D
Description: as §3, §4

[6] = target: T4, CD20 KDD mutant; test: flow cytometry, HEK293F cells expressing CD20 KDD mutant
Description: as §1, §2

T1 sequence (P07766 22-207 limits assumed): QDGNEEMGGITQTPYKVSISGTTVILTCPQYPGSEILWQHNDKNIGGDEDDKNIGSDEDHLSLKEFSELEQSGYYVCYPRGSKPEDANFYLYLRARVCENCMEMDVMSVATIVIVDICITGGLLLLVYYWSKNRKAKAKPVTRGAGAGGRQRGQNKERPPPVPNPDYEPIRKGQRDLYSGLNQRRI

B1: bsIgG1-huCLB-T3/4-FEALxCD20-11B8-FEAR (bispecific antibody)
heavy 1: EVQLVESGGGLVKPGGSLRLSCAASGFTFSSYGMFWVRQAPGKGLEWVATISRYSRYIYYPDSVKGRFTISRDNAKNSLYLQMNSLRAEDTAVYYCARRPLYGSSPDYWGQGTLVTVSSASTKGPSVFPLAPSSKSTSGGTAALGCLVKDYFPEPVTVSWNSGALTSGVHTFPAVLQSSGLYSLSSVVTVPSSSLGTQTYICNVNHKPSNTKVDKRVEPKSCDKTHTCPPCPAPEFEGGPSVFLFPPKPKDTLMISRTPEVTCVVVAVSHEDPEVKFNWYVDGVEVHNAKTKPREEQYNSTYRVVSVLTVLHQDWLNGKEYKCKVSNKALPAPIEKTISKAKGQPREPQVYTLPPSREEMTKNQVSLTCLVKGFYPSDIAVEWESNGQPENNYKTTPPVLDSDGSFLLYSKLTVDKSRWQQGNVFSCSVMHEALHNHYTQKSLSLSPGK
VL 1: EIVLTQSPATLSLSPGERATLSCSASSSVTYVHWYQQKPGQAPRLLIYDTSKLASGIPARFSGSGSGTDFTLTISSLEPEDFAVYYCFQGSGYPLTFGSGTKLEMR
heavy 2: EVQLVQSGGGLVHPGGSLRLSCTGSGFTFSYHAMHWVRQAPGKGLEWVSIIGTGGVTYYADSVKGRFTISRDNVKNSLYLQMNSLRAEDMAVYYCARDYYGAGSFYDGLYGMDVWGQGTTVTVSSASTKGPSVFPLAPSSKSTSGGTAALGCLVKDYFPEPVTVSWNSGALTSGVHTFPAVLQSSGLYSLSSVVTVPSSSLGTQTYICNVNHKPSNTKVDKRVEPKSCDKTHTCPPCPAPEFEGGPSVFLFPPKPKDTLMISRTPEVTCVVVAVSHEDPEVKFNWYVDGVEVHNAKTKPREEQYNSTYRVVSVLTVLHQDWLNGKEYKCKVSNKALPAPIEKTISKAKGQPREPQVYTLPPSREEMTKNQVSLTCLVKGFYPSDIAVEWESNGQPENNYKTTPPVLDSDGSFFLYSRLTVDKSRWQQGNVFSCSVMHEALHNHYTQKSLSLSPGK
VL 2: EIVLTQSPATLSLSPGERATLSCRASQSVSSYLAWYQQKPGQAPRLLIYDASNRATGIPARFSGSGSGTDFTLTISSLEPEDFAVYYCQQRSDWPLTFGGGTKVEIK
notes: also called huCLB-T3/4x11B8; bsIgG1-huCLB-3/4-FEALxCD20-11B8-FEAR
EC50 (read off the curve) [1]: ~0.06 µg/mL | EC50 (read off the curve) [2]: ~0.1 µg/mL | EC50 (read off the curve) [3]: ~0.3 µg/mL | % of wt CD20 binding [4]: 118% | % of wt CD20 binding [5]: 54%

B2: bsIgG1-huCD3-H1L1-FEALxCD20-7D8-FEAR (bispecific antibody)
heavy 1: not shown
light: not shown
heavy 2: EVQLVESGGGLVQPDRSLRLSCAASGFTFHDYAMHWVRQAPGKGLEWVSTISWNSGTIGYADSVKGRFTISRDNAKNSLYLQMNSLRAEDTALYYCAKDIQYGNYYYGMDVWGQGTTVTVSSASTKGPSVFPLAPSSKSTSGGTAALGCLVKDYFPEPVTVSWNSGALTSGVHTFPAVLQSSGLYSLSSVVTVPSSSLGTQTYICNVNHKPSNTKVDKRVEPKSCDKTHTCPPCPAPEFEGGPSVFLFPPKPKDTLMISRTPEVTCVVVAVSHEDPEVKFNWYVDGVEVHNAKTKPREEQYNSTYRVVSVLTVLHQDWLNGKEYKCKVSNKALPAPIEKTISKAKGQPREPQVYTLPPSREEMTKNQVSLTCLVKGFYPSDIAVEWESNGQPENNYKTTPPVLDSDGSFFLYSRLTVDKSRWQQGNVFSCSVMHEALHNHYTQKSLSLSPGK
VL: B1 VL 2 with D93N, L96I, G100Q, K103R, V104L
notes: Made by 2-MEA-induced Fab-arm exchange; also called CD3xCD20; CD3x7D8
EC50 (read off the curve) [2]: ~0.1 µg/mL | EC50 (read off the curve) [3]: ~0.2 µg/mL | % of wt CD20 binding [4]: 103% | % of wt CD20 binding [5]: 4% | binding result [6]: no binding (tested: 0.0015-10 µg/mL)

B3: bsIgG1-huCD3-H1L1-FEALxCD20-11B8-FEAR (bispecific antibody)
heavy 1: not shown
light: not shown
heavy 2: B1 heavy 2
VL: B1 VL 2
notes: also called CD3x11B8; huCD3x11B8
EC50 (read off the curve) [2]: ~0.1 µg/mL | EC50 (read off the curve) [3]: ~0.2 µg/mL | % of wt CD20 binding [4]: 95% | % of wt CD20 binding [5]: 67%

B4: bsIgG1-huCD3-H1L1-FEALxCD20-2F2-FEAR (bispecific antibody)
heavy 1: not shown
light: not shown
heavy 2: B2 heavy 2 with D15G, H30N, T57S, N77K
VL: B1 VL 2 with D93N, L96I, G100Q, K103R, V104L
notes: also called huCD3x2F2
EC50 (read off the curve) [2]: ~0.1 µg/mL | EC50 (read off the curve) [3]: ~0.2 µg/mL | % of wt CD20 binding [4]: 98% | % of wt CD20 binding [5]: 4% | binding result [6]: no binding (tested: 0.0015-10 µg/mL)

Source: patent publication US20200199231A1 (Genmab, published 2020)
